Reference: US12286461B2, “Recombinant fused polypeptide and use thereof” (priority 2019, dated 2025)

Assays:
[1] = tested on: adenovirus; assay: Mouse pneumonia model, viral pneumonia; assay type: in vivo; settings: BALB/C mouse pneumonia model, nasal drip; average ± standard deviation
Source text: (§1) A mouse pneumonia model was successfully established by using a nasal drip method. BALB/C mice with a body weight of 18-24 g were selected, and then anesthetized with ether on day 0, day 1 and day 2, respectively, prepared Streptococcus pneumoniae bacteria solution, adenovirus concentrated solution, Mycoplasma pneumoniae, Chlamydia pneumoniae, protozoa and pneumonia fungi were slowly dropped into the nasal cavity of the mice, so that the bacteria solutions entered the trachea and bronchi, and the bacteria solutions were prevented from flowing into the esophagus during the operation to avoid inactivation of the bacteria solutions, so that the mouse pneumonia model was established. After the model was successfully established, the recombinant fused polypeptides according to the present invention were administered.

[2] = tested on: Chlamydia pneumoniae; assay: Mouse pneumonia model, chlamydia pneumonia; assay type: in vivo; settings: BALB/C mouse pneumonia model, nasal drip; average ± standard deviation
Source text: as §1

[3] = tested on: Streptococcus pneumoniae; assay: Mouse pneumonia model, bacterial pneumonia; assay type: in vivo; settings: BALB/C mouse pneumonia model, nasal drip; average ± standard deviation
Source text: as §1

[4] = tested on: SD rats with renal fibrosis; assay: Renal fibrosis animal model (ureter ligation); assay type: in vivo; settings: 6 mg/kg s.c. once every five days, after 15 days
Method: A renal fibrosis animal model was established. SD rats were anesthetized with 4% chloral hydrate, injected with 1 mL/100 g intraperitoneally, fixed to an operation board, and sterilized in an operation area for further use. […] Muscular layers and abdominal walls were sewed layer by layer, the suture was disinfected with alcohol. After SD rats woke up, the rats were put into a cage for feeding. In the blank group, ureter was not ligated, and other steps were the same.
Then, the animals fell into a blank group, a model group, and recombinant fused polypeptide administration groups, and the administration was started on the second day after the operation, and was performed for 15 days. After administration for 15 days, blood was taken and supernatant was taken to detect the content of TGF-β1 in serum.

[5] = tested on: mice with bleomycin-induced skin fibrosis; assay: Bleomycin-induced skin fibrosis model; assay type: in vivo, C57/BL black mice; settings: C57/BL mice, bleomycin 10 μg/mL s.c. daily for 28 days, 10 mg/kg s.c. once every five days, 6 times, FIG. 6
Method: Bleomycin (10 μg/mL) was injected subcutaneously every day for 28 days to form skin fibrosis. During the modeling period, the administration groups were given drugs for treatment. After modeling, the mice were killed on the next day, and the skin tissue of the mouse back was taken to detect the content of HYP in the skin tissue. [table]

[6] = tested on: SD rats with CCl4-induced hepatic fibrosis; assay: CCl4-induced hepatic fibrosis animal model; assay type: in vivo; settings: 40% CCl4 i.p. twice a week for 8 weeks, fused polypeptides 6 mg/kg s.c. once every five days
Method: Modeling was performed on the rats. Each group other than the blank group was injected with 40% CCl4 intraperitoneally twice a week, the first injection was performed at 3 mL/kg, and then injection was performed at 2 mL/kg. Modeling was performed for 8 weeks to induce hepatic fibrosis. After the intraperitoneal injection of CCl4 for the fourth time, the drugs were administered according to Table 3. After induction for 8 weeks, the administration was stopped. The SD rats were dissected the next day, and blood was taken. The liver tissue was stored in a refrigerator at −80° C. for further use. The expression of HYP in the hepatic tissue of rats was detected. [table]

[7] = tested on: protozoa; assay: Mouse pneumonia model, protozoal pneumonia; assay type: in vivo; settings: BALB/C mouse pneumonia model, nasal drip; average ± standard deviation
Source text: as §1

[8] = tested on: SD rats with bleomycin-induced pulmonary fibrosis; assay: Bleomycin-induced pulmonary fibrosis animal model; assay type: in vivo; settings: for Survival rate (%): bleomycin 5 mg/kg intratracheal, dosage 10 mg/kg (Table 2), administration cycle 15 days from day 7 after modeling; for hydroxyproline (HYP) content in lung tissue / content of TGF-β1 in serum, difference from the model group: bleomycin pulmonary fibrosis, after 15 days; for hydroxyproline (HYP) content in lung tissue: 10 mg/kg s.c. once every five days, FIG. 1; for content of TGF-β1 in serum, difference from the model group: fused polypeptides 10 mg/kg s.c. once every five days, nintedanib 25 mg/kg intragastric once a day
Method: SD rats were anesthetized by intraperitoneal injection of 4% chloral hydrate with a concentration of 1 mL/100 g. After anesthesia, the rats were fixed and their necks were disinfected by using cotton with 75% alcohol. The skin of the rat neck was longitudinally cut with scissors, and the fascia and muscle were longitudinally bluntly torn with tweezers to expose the trachea. A syringe was inserted into the trachea to inject 5 mg/kg bleomycin, while a blank group was injected with an equal amount of normal saline. Then a rat plate was quickly erected and rotated, the rats' breathing was observed, the neck wound was sterilized after rotation and was sewn, and an amoxicillin anti-inflammatory drug was sprinkled on the suture. After the operation, the rats were put back into a dry and clean cage for resting, waiting for awakening. The rats were awakened after about 1-2 hours, and then fed normally. On the 7th day after modeling, modeling group animals randomly fell into a model group, a Nintedanib positive drug group, recombinant fused polypeptide 1, 2, 3 and 4 dosage groups, and a normal control group, and the groups were administered separately for an administration cycle of 15 days. Living situations of rats were observed every day and their weights were weighed. After administration for 15 days, the eyeballs were removed and blood was taken, the rats were dissected, and lungs were taken. The content of TGF-β1 in serum and the content of HYP in lung tissues were detected.

[9] = tested on: pneumonia fungi; assay: Mouse pneumonia model, fungal pneumonia; assay type: in vivo; settings: BALB/C mouse pneumonia model, nasal drip; average ± standard deviation
Source text: as §1

[10] = tested on: pulmonary infections; assay: Mouse pneumonia model, pneumonia caused by pulmonary infections; assay type: in vivo, BALB/C mice; settings: BALB/C mouse pneumonia model, nasal drip, average ± standard deviation
Source text: as §1

[11] = tested on: Mycoplasma pneumoniae; assay: Mouse pneumonia model, mycoplasma pneumonia; assay type: in vivo; settings: BALB/C mouse pneumonia model, nasal drip; average ± standard deviation
Source text: as §1

[12] = tested on: mice with myocardial fibrosis; assay: Isoprenaline-induced myocardial fibrosis animal model; assay type: in vivo; settings: BALB/c mice, isoprenaline 5 mg/kg s.c. daily for 7 days, 12 mg/kg s.c. (Table 5), after the 8th day, FIG. 5
Method: In the model group, the experimental mice were injected with isoprenaline (ISO) (5 mg/kg) subcutaneously on the back of the mice every day for 7 consecutive days, and the mice were injected with normal saline subcutaneously (200 μL/mouse) every day. In the blank group, normal saline was injected subcutaneously (200 μL/mouse) every day. […] After the 8th day, blood was taken and was centrifuged, the supernatant was taken, and the content of TGF-β1 in serum was detected.

[13] = listed as recombinant fused polypeptide I
[14] = listed as recombinant fused polypeptide II

B1: PRCWRGEGGGGIVRRADRAAVPGGGGRGDGGGGSGGGGSGGGGSSDKPGGGGTSLDASIIWAMMQNGGGGLSKL (protein)
chain: PRCWRGEGGGGIVRRADRAAVPGGGGRGDGGGGSGGGGSGGGGSSDKPGGGGTSLDASIIWAMMQNGGGGLSKL
notes: Recombinant fused polypeptide X-linker1-Y expressed in 293 cells
Inhibitory effect, Viral pneumonia [1]: 54.68 ± 5.23
Inhibitory effect, Chlamydia pneumonia [2]: 39.26 ± 4.66
Inhibitory effect, Bacterial pneumonia [3]: 38.43 ± 8.25
content of TGF-β1 in serum, difference from the model group ([4]; FIG. 4, listed as recombinant fused polypeptide 1, 6 mg/kg): highly significantly different from the model group (***P<0.001)
content of TGF-β1 in serum, difference from the model group ([4]; FIG. 4, listed as recombinant fused polypeptide I, 6 mg/kg): can lower the TGF-β1 content
content of HYP in skin tissue, difference from the model group ([5]; listed as recombinant fused polypeptide 1, 10 mg/kg): highly significantly different from the model group (**P<0.01)
content of HYP in skin tissue, difference from the model group ([5]; listed as recombinant fused polypeptide I, 10 mg/kg): can lower the hydroxyproline content
content of HYP in liver tissue, difference from the model group ([6]; FIG. 3, listed as Recombinant fused polypeptide 1): highly significantly different from the model group (***P<0.001)
content of HYP in liver tissue, difference from the model group ([6]; FIG. 3, listed as recombinant fused polypeptide I): can lower the HYP content
Inhibitory effect, Protozoal pneumonia [7]: 54.26 ± 5.32
Survival rate (%) [8]: 85.7%
Survival rate (%) ([8]; listed as fused polypeptide 1): equivalent to that of the positive drug group
hydroxyproline (HYP) content in lung tissue [8]: can lower the hydroxyproline content
content of TGF-β1 in serum, difference from the model group ([8]; FIG. 2, listed as fused polypeptide 1): highly significantly different from the model group (**P<0.01)
content of TGF-β1 in serum, difference from the model group ([8]; FIG. 2, listed as recombinant fused polypeptide I): can lower the TGF-β1 content
Inhibitory effect, Fungal pneumonia [9]: 49.68 ± 5.74
Inhibitory effect, Pneumonia caused by pulmonary infections [10]: 52.47 ± 4.28
Inhibitory effect, Pneumonia caused by pulmonary infections [10, 13]: inhibitory effect
Inhibitory effect, Mycoplasma pneumonia [11]: 38.47 ± 4.35
content of TGF-β1 in serum, difference from the model group ([12]; listed as recombinant fused polypeptide 1): significantly different from the model group (**P<0.01)
content of TGF-β1 in serum, difference from the model group [12, 13]: can lower the TGF-β1 content

B2: Acetyl-SDKPGGGGTSLDASIIWAMMQNGGGGLSKLGGGGSGGGGSGGGGSPRCWRGEGGGGIVRRADRAAVPGGGGRGD (protein)
chain: SDKPGGGGTSLDASIIWAMMQNGGGGLSKLGGGGSGGGGSGGGGSPRCWRGEGGGGIVRRADRAAVPGGGGRGD
modifications: N-acetyl
notes: Recombinant fused polypeptide Y-linker1-X expressed in 293 cells
Inhibitory effect, Viral pneumonia [1]: 58.08 ± 5.27
Inhibitory effect, Chlamydia pneumonia [2]: 50.21 ± 4.85
Inhibitory effect, Bacterial pneumonia [3]: 49.18 ± 5.32
content of TGF-β1 in serum, difference from the model group ([4]; FIG. 4, listed as recombinant fused polypeptide 2, 6 mg/kg): highly significantly different from the model group (***P<0.001)
content of TGF-β1 in serum, difference from the model group ([4]; FIG. 4, listed as recombinant fused polypeptide II, 6 mg/kg): can lower the TGF-β1 content
content of HYP in skin tissue, difference from the model group ([5]; listed as recombinant fused polypeptide 2, 10 mg/kg): highly significantly different from the model group (***P<0.001)
content of HYP in skin tissue, difference from the model group ([5]; listed as recombinant fused polypeptide II, 10 mg/kg): can lower the hydroxyproline content
content of HYP in liver tissue, difference from the model group ([6]; FIG. 3, listed as Recombinant fused polypeptide 2): highly significantly different from the model group (***P<0.001)
content of HYP in liver tissue, difference from the model group ([6]; FIG. 3, listed as recombinant fused polypeptide II): can lower the HYP content
Inhibitory effect, Protozoal pneumonia [7]: 66.13 ± 5.36
Survival rate (%) [8]: 85.7%
Survival rate (%) ([8]; listed as fused polypeptide 2): equivalent to that of the positive drug group
hydroxyproline (HYP) content in lung tissue [8]: can lower the hydroxyproline content
content of TGF-β1 in serum, difference from the model group ([8]; FIG. 2, listed as fused polypeptide 2): highly significant different from the model group (***P<0.001)
content of TGF-β1 in serum, difference from the model group ([8]; FIG. 2, listed as recombinant fused polypeptide II): can lower the TGF-β1 content
Inhibitory effect, Fungal pneumonia [9]: 63.07 ± 3.02
Inhibitory effect, Pneumonia caused by pulmonary infections [10]: 65.87 ± 3.19
Inhibitory effect, Pneumonia caused by pulmonary infections [10, 14]: inhibitory effect
Inhibitory effect, Mycoplasma pneumonia [11]: 45.72 ± 5.69
content of TGF-β1 in serum, difference from the model group ([12]; listed as recombinant fused polypeptide 2): highly significantly different from the model group (***P<0.001)
content of TGF-β1 in serum, difference from the model group [12, 14]: can lower the TGF-β1 content
